This is an account of results in patent US20240366624A1 (WASHINGTON UNIVERSITY, published 2024).

The target in experiment [1] is T1, human platelet PDI (protein disulfide isomerase) (human, UniProt P07237 18-508).
T1 construct: Immunoprecipitated with biotinylated polyclonal anti-PDI antibodies
Description: immunoprecipitation of PDI from lysates of resting and thrombin-treated human platelets, immunoblot with anti-ERO1α, densitometry. The procedure:
FIG. 1(A-D) is an exemplary embodiment of PDI interacting with ERO1α in platelets in accordance with the present disclosure. Human platelets were treated with or without thrombin for 5 minutes and immunoprecipitated with biotinylated polyclonal anti-PDI antibodies or control IgG. After trypsin digestion, mass spectrometric analysis was conducted. […] FIG. 1B: Examples of the identification of the tryptic peptides […] (SEQ ID NO: 1) and […] (SEQ ID NO: 2) from ERO1α in which the parent ion is observed at 521.77 and 753.37 m/z, respectively, and the parent ion mass error is 4.3 and 3.5 ppm, respectively. FIG. 1C: The peptide sequences of ERO1α that were detected after trypsin digestion. FIG. 1D: After immunoprecipitation with antibodies, the bound fraction was immunoblotted with the indicated antibodies, followed by densitometry (the band density of ERO1a/that of PDI). The data represent the mean±SD (n=3). P value determined by unpaired Student's t-test.
A general note: In western blotting, separated proteins are transferred to a membrane and probed.

Experiment [2] deals with T2, human platelet STIM1 (stromal interaction molecule 1) (human, UniProt Q13586 23-685).
T2 construct: Co-immunoprecipitated with ERO1α
Description: co-immunoprecipitation of ERO1α from lysates of resting and thrombin-activated human platelets, mass spectrometry; volcano plot thrombin versus no thrombin.

Experiment [3] addresses T3, human platelet SERCA2 (sarco/endoplasmic reticulum Ca2+ ATPase 2) (human, UniProt P16615 1-1042, limits assumed).
T3 construct: Co-immunoprecipitated with ERO1α
Described as above.

Experiment [4] has as its target T4, recombinant human ERO1α (endoplasmic reticulum oxidoreductase 1α), wild type (human, UniProt Q96HE7 24-468, biotinylated when coupled to the bio-layer interferometry biosensor (site not stated)).
T4 construct: also called wtERO1α; biotinylated ERO1α
T4 sequence (looked up): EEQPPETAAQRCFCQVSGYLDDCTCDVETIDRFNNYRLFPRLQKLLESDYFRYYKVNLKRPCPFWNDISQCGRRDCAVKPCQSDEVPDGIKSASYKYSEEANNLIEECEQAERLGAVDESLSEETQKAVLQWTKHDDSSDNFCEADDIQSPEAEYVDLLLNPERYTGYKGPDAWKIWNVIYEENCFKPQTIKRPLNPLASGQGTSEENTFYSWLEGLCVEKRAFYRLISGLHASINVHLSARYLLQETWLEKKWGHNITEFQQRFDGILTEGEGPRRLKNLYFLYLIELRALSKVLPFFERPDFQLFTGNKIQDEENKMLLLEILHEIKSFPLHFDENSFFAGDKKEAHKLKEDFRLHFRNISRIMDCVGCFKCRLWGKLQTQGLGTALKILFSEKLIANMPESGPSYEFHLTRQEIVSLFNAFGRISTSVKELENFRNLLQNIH
Description: bio-layer interferometry, biotinylated ERO1α on the biosensor, STIM1 in solution. An excerpt:
PDI is reported to localize in the DTS of platelets. […] It is reported that deletion of platelet STIM1 reduces Ca²⁺ store content in the DTS and SOCE. Thus, ERO1α regulation of STIM1 function was investigated. Bio-layer interferometry was first performed using a biosensor coupled with biotinylated ERO1α and a different concentration of WT or mutant STIM1 in which Cys49 and Cys56 residues were mutated to Ser49 and Ser56 (mutant STIM1 [mSTIM1]-Cys49/56Ser).

T3 sequence (P16615 whole entry): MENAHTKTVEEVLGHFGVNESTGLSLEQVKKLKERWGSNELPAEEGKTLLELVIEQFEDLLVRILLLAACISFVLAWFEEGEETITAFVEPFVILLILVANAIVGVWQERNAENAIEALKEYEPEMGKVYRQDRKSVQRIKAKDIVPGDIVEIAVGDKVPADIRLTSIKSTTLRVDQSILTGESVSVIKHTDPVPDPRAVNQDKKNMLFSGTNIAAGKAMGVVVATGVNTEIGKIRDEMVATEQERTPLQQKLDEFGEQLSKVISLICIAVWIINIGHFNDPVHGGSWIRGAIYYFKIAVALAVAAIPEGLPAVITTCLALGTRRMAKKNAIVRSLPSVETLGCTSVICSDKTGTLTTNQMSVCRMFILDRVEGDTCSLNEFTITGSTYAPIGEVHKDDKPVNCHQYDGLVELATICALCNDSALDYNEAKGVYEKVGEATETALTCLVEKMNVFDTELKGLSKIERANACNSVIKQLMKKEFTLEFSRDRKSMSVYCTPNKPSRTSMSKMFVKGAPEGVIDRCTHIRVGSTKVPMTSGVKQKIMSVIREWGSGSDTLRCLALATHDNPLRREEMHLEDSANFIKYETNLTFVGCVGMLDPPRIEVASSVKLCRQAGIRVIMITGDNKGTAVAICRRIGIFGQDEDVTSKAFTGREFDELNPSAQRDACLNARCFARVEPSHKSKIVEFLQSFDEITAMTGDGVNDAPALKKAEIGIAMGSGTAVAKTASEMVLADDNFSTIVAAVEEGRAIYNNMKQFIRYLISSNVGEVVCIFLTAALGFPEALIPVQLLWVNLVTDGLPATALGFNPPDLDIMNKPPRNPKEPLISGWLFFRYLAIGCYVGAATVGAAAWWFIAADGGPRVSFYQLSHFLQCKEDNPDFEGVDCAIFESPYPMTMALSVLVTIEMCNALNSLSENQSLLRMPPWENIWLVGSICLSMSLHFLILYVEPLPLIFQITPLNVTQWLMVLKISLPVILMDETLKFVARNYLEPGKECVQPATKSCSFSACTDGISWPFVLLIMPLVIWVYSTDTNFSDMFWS
T1 sequence (P07237 18-508 limits assumed): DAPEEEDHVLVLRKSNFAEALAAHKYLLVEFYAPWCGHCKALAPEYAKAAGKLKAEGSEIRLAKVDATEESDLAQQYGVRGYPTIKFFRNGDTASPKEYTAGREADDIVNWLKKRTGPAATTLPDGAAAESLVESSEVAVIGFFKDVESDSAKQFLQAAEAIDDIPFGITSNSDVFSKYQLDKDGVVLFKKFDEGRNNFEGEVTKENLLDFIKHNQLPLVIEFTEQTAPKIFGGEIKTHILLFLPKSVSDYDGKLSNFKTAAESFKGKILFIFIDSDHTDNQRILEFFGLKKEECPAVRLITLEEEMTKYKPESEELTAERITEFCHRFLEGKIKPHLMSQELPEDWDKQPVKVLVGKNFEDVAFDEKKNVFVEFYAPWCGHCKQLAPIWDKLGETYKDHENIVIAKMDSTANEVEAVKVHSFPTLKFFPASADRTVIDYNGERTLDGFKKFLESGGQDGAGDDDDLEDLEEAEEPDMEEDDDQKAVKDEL

B1: human platelet ERO1α (enzyme, UniProt Q96HE7 24-468, looked up)
chain: T4 sequence (looked up)
notes: Endogenous protein in platelet lysates (immunoprecipitation, immunoblot)
B1: the binding result in experiment [1], in experiment [2] and in experiment [3] was “binds” each time.

B2: wild type STIM1, recombinant (other, UniProt Q13586 23-213, looked up)
chain: LSHSHSEKATGTSSGANSEESTAAEFCRIDKPLCHSEDEKLSFEAVRNIHKLMDDDANGDVDVEESDEFLREDLNYHDPTVKHSTFHGEDKLISVEDLWKAWKSSEVYNWTVDEVVQWLITYVELPQYEETFRKLQLSGHAMPRLAVTNTTMTGTVLKMTDRSHRQKLQLKALDTVLFGPPLLTRHNHLKD
notes: also called wtSTIM1; WT STIM1
As to B2, in experiment [4], the dissociation constant (Kd) (commonly the concentration at which binding is half-saturated) was 2600 nM.
